Among the data in patent US20240084039A1 are % positives of total tested serum samples and No of positive serum samples above 30% CCP (serum samples) values, retold here.

The experiment has as its target pre-existing anti-drug antibodies (ADA) present in human sera. Briefly: ELISA pre-existing ADA binding assay, confirmatory setup, test molecule coated, 20 human sera.

B1: PRO2669 (protein)
chain 1: DVQMTQSPSSLSASVGDRVTITCRASENIYSGLAWYQQKPGKPPKLLIYRASTLASGVSSRFSGSGSGTDFTLTISSLQPEDFATYYCQGGYYSSSSTYIAFGTGTKVTVLGGGGGSGGGGSGGGGSGGGGSQSQVVESGGGRVQPGGSLRLSCAVSGFDLSSYAVSWVRQAPGKGLEWIGIIYPRANTYYASWAKGRFTISKDNSKNTVYLQMNSLRAEDTATYFCARDRYDSGAYLYTTYFNLWGQGTQVTVSSGGGGSGGGGSAFELTQSPSSLSASVGDRVTITCQASESINSRLAWYQQKPGQPPKLLIYDASDLTSGVPSRFSGSGSGTDFTLTISSLQPEDFATYYCQGYGGSSTTTFGCGTKLTVLGGGSGGSDIQMTQSPSSLSASVGDRVTITCQSSQSVFSNNYLAWFQQKPGQSPKRLIYSASTLASGVPSRFSGSGSGTDFTLTISSLQPEDFATYYCLGSYACSSADCYVFGTGTKVTVLG
chain 2: DVQMTQSPSSLSASVGDRVTITCRASENIYSGLAWYQQKPGKPPKLLIYRASTLASGVSSRFSGSGSGTDFTLTISSLQPEDFATYYCQGGYYSSSSTYIAFGTGTKVTVLGGGGGSGGGGSGGGGSGGGGSQSQVVESGGGRVQPGGSLRLSCAVSGFDLSSYAVSWVRQAPGKGLEWIGIIYPRANTYYASWAKGRFTISKDNSKNTVYLQMNSLRAEDTATYFCARDRYDSGAYLYTTYFNLWGQGTQVTVSSGGGGSGGGGSEVQLVESGGGRVQPGGSLRLSCAASGFSLSSYDMSWVRQAPGKGLAWIGASYASGPTYYASWAKGRFTISRDNSKNTVYLQMNSLRAEDTATYFCARGGWTGTSHSNIWGQGTQVTVSSGGGSGGGSGGGSGEVQLVESGGGRVQPGGSLRLSCAASGFSLSSYAMNWVRQAPGKCLEWIGHINAGDIAYYATWAKGRFTISRDNSKNTVYLQMNSLRAEDTATYFCARGAGGFSTGPFKLWGQGTQVTVSS
Turning to B1, the % positives of total tested serum samples worked out at 5% and the No of positive serum samples above 30% CCP (serum samples) was found to be 1.

B2: PRO2668 (protein)
chain: AFELTQSPSSLSASVGDRVTITCQASESINSRLAWYQQKPGQPPKLLIYDASDLTSGVPSRFSGSGSGTDFTLTISSLQPEDFATYYCQGYGGSSTTTFGCGTKLTVLGGGGGSEVQLVESGGGRVQPGGSLRLSCAASGFSLSSYDMSWVRQAPGKGLAWIGASYASGPTYYASWAKGRFTISRDNSKNTVYLQMNSLRAEDTATYFCARGGWTGTSHSNIWGQGTQVTVSSGGGGSGGGGSGGGGSGGGGSDIQMTQSPSSLSASVGDRVTITCQSSQSVFSNNYLAWFQQKPGQSPKRLIYSASTLASGVPSRFSGSGSGTDFTLTISSLQPEDFATYYCLGSYACSSADCYVFGTGTKVTVLGGGGGSEVQLVESGGGRVQPGGSLRLSCAASGFSLSSYAMNWVRQAPGKCLEWIGHINAGDIAYYATWAKGRFTISRDNSKNTVYLQMNSLRAEDTATYFCARGAGGFSTGPFKLWGQGTQVTVSSGGGGSGGGGSAQQLTQSPSSLSASVGDRVTITCQASQNVWNNNYLSWFQQKPGKPPKLLIVTASTLASGVSSRFSGSGSGTDFTLTISSLQPEDFATYYCAGGFSGEIRAFGCGTKVTVLGGGGGSGGGGSGGGGSGGGGSQSQLVESGGGRVQPGGSLRLSCAVSGLSLSRNAMSWVRQAPGKCLEWIGIILTSGSTYYASWAKGRFTISKDNSKNTVYLQMNSLRAEDTATYFCVRGIASSSLKSFWGQGTQVTVSS
With B2, the % positives of total tested serum samples was found to be 0% and the No of positive serum samples above 30% CCP (serum samples) turned out to be 0.

B3: PRO2510 (protein)
chain: AFELTQSPSSLSASVGDRVTITCQASESINSRLAWYQQKPGQPPKLLIYDASDLTSGVPSRFSGSGSGTDFTLTISSLQPEDFATYYCQGYGGSSTTTFGCGTKLTVLGGGGGSEVQLVESGGGLVQPGGSLRLSCAASGFSLSSYDMSWVRQAPGKGLAWIGASYASGPTYYASWAKGRFTISRDNSKNTVYLQMNSLRAEDTATYFCARGGWTGTSHSNIWGQGTLVTVSSGGGGSGGGGSGGGGSGGGGSDIQMTQSPSSLSASVGDRVTITCQSSQSVFSNNYLAWFQQKPGQSPKRLIYSASTLASGVPSRFSGSGSGTDFTLTISSLQPEDFATYYCLGSYACSSADCYVFGTGTKVTVLGGGGGSEVQLVESGGGLVQPGGSLRLSCAASGFSLSSYAMNWVRQAPGKCLEWIGHINAGDIAYYATWAKGRFTISRDNSKNTVYLQMNSLRAEDTAVYFCARGAGGFSTGPFKLWGQGTLVTVSSGGGGSGGGGSAQQLTQSPSSLSASVGDRVTITCQASQNVWNNNYLSWFQQKPGKPPKLLIVTASTLASGVSSRFSGSGSGTDFTLTISSLQPEDFATYYCAGGFSGEIRAFGCGTKVTVLGGGGGSGGGGSGGGGSGGGGSQSQLVESGGGLVQPGGSLRLSCAVSGLSLSRNAMSWVRQAPGKCLEWIGIILTSGSTYYASWAKGRFTISKDNSKNTVYLQMNSLRAEDTAVYFCVRGIASSSLKSFWGQGTLVTVSS
Molecule B3 returned a % positives of total tested serum samples of 15% and a No of positive serum samples above 30% CCP (serum samples) of 3.

B4: PRO2984 (scFv)
scFv: DIQMTQSPASLSASVGDRVTITCQASQSIGTYLAWYQQKPGKPPKLLIYRAFILASGVPSRFSGSGSGTDFTLTISSLQPEDFATYYCQSNFYSDSTTIGPNAFGTGTKVTVLGGGGGSGGGGSGGGGSGGGGSEVQLVESGGGSVQPGGSLRLSCAASGFSFNSDYWIYWVRQAPGKGLEWIASIYGGSSGNTQYASWAQGRFTISRDNSKNTVYLQMNSLRAEDTATYFCARGYVDYGGATDLWGQGTTVTVSS
As to B4, the % positives of total tested serum samples came to 25% and the No of positive serum samples above 30% CCP (serum samples) is 5.

B5: PRO2990 (scFv)
scFv: DIQMTQSPSSLSASVGDRVTITCQASESIYSSLAWYQQKPGKAPKLLIYLASTLASGVPSRFSGSGSGTDFTLTISSLQPEDFATYYCQSTDYTTSTHRNSFGTGTKVTVLGGGGGSGGGGSGGGGSGGGGSEVQLVESGGGSVQPGGSLRLSCAASGFSFSTTYYMCWVRQAPGKGLEWIGCTNTASSVRTYYATWAKGRFTISRDNSKNTVYLQMNSLRAEDTATYYCARDMGFADYALNLWGQGTTVTVSS
As to B5, the % positives of total tested serum samples was found to be 25% and the No of positive serum samples above 30% CCP (serum samples) came to 5.

B6: PRO2741 (protein)
chain 1: DIQMTQSPSSLSASVGDRVTITCQASESIYSSLAWYQQKPGKAPKLLIYLASTLASGVPSRFSGSGSGTDFTLTISSLQPEDFATYYCQSTDYTTSTHRNSFGTGTKVTVLGGGGGSGGGGSGGGGSGGGGSEVQLVESGGGRVQPGGSLRLSCAASGFSFSTTYYMCWVRQAPGKGLEWIGCTNTASSVRTYYATWAKGRFTISRDNSKNTVYLQMNSLRAEDTATYYCARDMGFADYALNLWGQGTQVTVSSGGGGSGGGGSEVQLVESGGGRVQPGGSLRLSCAASGFSLSSYDMSWVRQAPGKGLAWIGASYASGPTYYASWAKGRFTISRDNSKNTVYLQMNSLRAEDTATYFCARGGWTGTSHSNIWGQGTQVTVSSGGGSGGGSGGGSGEVQLVESGGGRVQPGGSLRLSCAASGFSLSSYAMNWVRQAPGKCLEWIGHINAGDIAYYATWAKGRFTISRDNSKNTVYLQMNSLRAEDTATYFCARGAGGFSTGPFKLWGQGTQVTVSS
chain 2: DIQMTQSPSSLSASVGDRVTITCQASESIYSSLAWYQQKPGKAPKLLIYLASTLASGVPSRFSGSGSGTDFTLTISSLQPEDFATYYCQSTDYTTSTHRNSFGTGTKVTVLGGGGGSGGGGSGGGGSGGGGSEVQLVESGGGRVQPGGSLRLSCAASGFSFSTTYYMCWVRQAPGKGLEWIGCTNTASSVRTYYATWAKGRFTISRDNSKNTVYLQMNSLRAEDTATYYCARDMGFADYALNLWGQGTQVTVSSGGGGSGGGGSAFELTQSPSSLSASVGDRVTITCQASESINSRLAWYQQKPGQPPKLLIYDASDLTSGVPSRFSGSGSGTDFTLTISSLQPEDFATYYCQGYGGSSTTTFGCGTKLTVLGGGSGGSDIQMTQSPSSLSASVGDRVTITCQSSQSVFSNNYLAWFQQKPGQSPKRLIYSASTLASGVPSRFSGSGSGTDFTLTISSLQPEDFATYYCLGSYACSSADCYVFGTGTKVTVLG
As for B6, the % positives of total tested serum samples came out at 15% and the No of positive serum samples above 30% CCP (serum samples) is 3.

B7: PRO2660 (protein)
chain 1: DIQMTQSPSSLSASVGDRVTITCQASESIYSSLAWYQQKPGKAPKLLIYLASTLASGVPSRFSGSGSGTDFTLTISSLQPEDFATYYCQSTDYTTSTHRNSFGTGTKVTVLGGGGGSGGGGSGGGGSGGGGSEVQLVESGGGLVQPGGSLRLSCAASGFSFSTTYYMCWVRQAPGKGLEWIGCTNTASSVRTYYATWAKGRFTISRDNSKNTVYLQMNSLRAEDTAVYYCARDMGFADYALNLWGQGTLVTVSSGGGGSGGGGSEVQLVESGGGLVQPGGSLRLSCAASGFSLSSYDMSWVRQAPGKGLAWIGASYASGPTYYASWAKGRFTISRDNSKNTVYLQMNSLRAEDTATYFCARGGWTGTSHSNIWGQGTLVTVSSGGGSGGGSGGGSGEVQLVESGGGLVQPGGSLRLSCAASGFSLSSYAMNWVRQAPGKCLEWIGHINAGDIAYYATWAKGRFTISRDNSKNTVYLQMNSLRAEDTAVYFCARGAGGFSTGPFKLWGQGTLVTVSS
chain 2: DIQMTQSPSSLSASVGDRVTITCQASESIYSSLAWYQQKPGKAPKLLIYLASTLASGVPSRFSGSGSGTDFTLTISSLQPEDFATYYCQSTDYTTSTHRNSFGTGTKVTVLGGGGGSGGGGSGGGGSGGGGSEVQLVESGGGLVQPGGSLRLSCAASGFSFSTTYYMCWVRQAPGKGLEWIGCTNTASSVRTYYATWAKGRFTISRDNSKNTVYLQMNSLRAEDTAVYYCARDMGFADYALNLWGQGTLVTVSSGGGGSGGGGSAFELTQSPSSLSASVGDRVTITCQASESINSRLAWYQQKPGQPPKLLIYDASDLTSGVPSRFSGSGSGTDFTLTISSLQPEDFATYYCQGYGGSSTTTFGCGTKLTVLGGGSGGSDIQMTQSPSSLSASVGDRVTITCQSSQSVFSNNYLAWFQQKPGQSPKRLIYSASTLASGVPSRFSGSGSGTDFTLTISSLQPEDFATYYCLGSYACSSADCYVFGTGTKVTVLG
In turn, B7 came in with a % positives of total tested serum samples of 30% and a No of positive serum samples above 30% CCP (serum samples) of 6.
